In PMC4434323:

Experiments:
[1] = biological target: T1, mab-23 (C32C4.5) (Caenorhabditis elegans) (UniProt G5ECK3)
T1 sequence: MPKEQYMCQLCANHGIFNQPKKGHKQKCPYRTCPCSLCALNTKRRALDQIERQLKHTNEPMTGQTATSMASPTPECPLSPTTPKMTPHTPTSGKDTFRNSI

[2] = biological target: T2, dmd-6 (F13G11.1) (Caenorhabditis elegans) (UniProt O62159)
T2 sequence: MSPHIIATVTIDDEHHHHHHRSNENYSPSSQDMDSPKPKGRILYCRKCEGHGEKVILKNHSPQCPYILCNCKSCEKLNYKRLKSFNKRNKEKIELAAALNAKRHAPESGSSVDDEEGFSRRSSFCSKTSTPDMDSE

[3] = biological target: T3, daf-19 (F33H1.1) (Caenorhabditis elegans) (UniProt Q09555)
T3 sequence: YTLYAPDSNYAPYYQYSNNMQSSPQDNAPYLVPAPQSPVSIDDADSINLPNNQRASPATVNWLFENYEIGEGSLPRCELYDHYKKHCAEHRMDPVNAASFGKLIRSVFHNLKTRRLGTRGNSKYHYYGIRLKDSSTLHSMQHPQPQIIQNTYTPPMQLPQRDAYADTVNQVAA

[4] = biological target: T4, nhr-168 (C50B6.8) (Caenorhabditis elegans) (UniProt P91983)
T4 sequence: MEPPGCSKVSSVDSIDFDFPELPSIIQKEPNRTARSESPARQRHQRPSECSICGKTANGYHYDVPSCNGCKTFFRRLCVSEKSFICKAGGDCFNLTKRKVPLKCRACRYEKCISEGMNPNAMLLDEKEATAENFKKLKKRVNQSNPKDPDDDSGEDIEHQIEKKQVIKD

[5] = tested on: scrt-1 (C55C2.1) (Caenorhabditis elegans)
[6] = biological target: T5, tbx-33 (Y66A7A.8) (Caenorhabditis elegans) (UniProt O45291)
T5 sequence: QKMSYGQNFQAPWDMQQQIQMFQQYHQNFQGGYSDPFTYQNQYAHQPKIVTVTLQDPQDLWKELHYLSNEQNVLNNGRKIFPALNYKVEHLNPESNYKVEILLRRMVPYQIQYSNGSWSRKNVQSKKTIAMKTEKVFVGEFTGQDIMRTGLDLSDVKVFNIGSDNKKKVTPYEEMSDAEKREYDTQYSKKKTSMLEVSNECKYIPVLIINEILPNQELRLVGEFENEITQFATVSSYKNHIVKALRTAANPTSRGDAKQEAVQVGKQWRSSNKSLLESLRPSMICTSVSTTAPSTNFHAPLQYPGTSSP

[7] = biological target: egl-13 (T22B7.1) (Caenorhabditis elegans) (UniProt Q23045)
[8] = biological target: T6, Y51H4A.4 (Y51H4A.4) (Caenorhabditis elegans) (UniProt Q9NAE4)
T6 sequence: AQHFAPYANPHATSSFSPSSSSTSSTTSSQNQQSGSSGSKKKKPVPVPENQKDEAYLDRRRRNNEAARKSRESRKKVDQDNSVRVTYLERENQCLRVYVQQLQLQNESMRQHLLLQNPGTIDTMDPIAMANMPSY

[9] = biological target: T7, K02D7.2 (K02D7.2) (Caenorhabditis elegans) (UniProt O45103)
T7 sequence: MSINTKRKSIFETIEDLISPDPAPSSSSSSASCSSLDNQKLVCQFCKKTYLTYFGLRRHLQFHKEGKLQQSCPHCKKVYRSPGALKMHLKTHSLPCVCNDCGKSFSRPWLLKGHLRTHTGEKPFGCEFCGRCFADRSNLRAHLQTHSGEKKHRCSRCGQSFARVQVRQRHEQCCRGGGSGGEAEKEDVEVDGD

[10] = biological target: T8, elt-7 (C18G1.2) (Caenorhabditis elegans) (UniProt O61924)
T8 sequence: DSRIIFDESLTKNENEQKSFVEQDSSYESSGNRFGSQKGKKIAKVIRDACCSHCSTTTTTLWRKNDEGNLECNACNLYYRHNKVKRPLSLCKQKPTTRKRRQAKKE

[11] = biological target: T9, elt-6 (F52C12.5) (Caenorhabditis elegans) (UniProt G5EGN3)
T9 sequence: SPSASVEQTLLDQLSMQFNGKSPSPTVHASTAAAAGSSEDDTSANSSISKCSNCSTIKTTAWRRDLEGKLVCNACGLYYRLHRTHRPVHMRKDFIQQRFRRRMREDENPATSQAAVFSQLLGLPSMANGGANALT

[12] = biological target: T10, odr-7 (T18D3.2) (Caenorhabditis elegans) (UniProt P41933)
T10 sequence: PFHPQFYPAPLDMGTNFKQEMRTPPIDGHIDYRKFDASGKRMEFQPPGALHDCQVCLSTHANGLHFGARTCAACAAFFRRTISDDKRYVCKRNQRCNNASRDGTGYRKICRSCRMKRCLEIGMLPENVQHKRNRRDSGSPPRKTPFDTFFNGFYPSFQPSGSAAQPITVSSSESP

[13] = biological target: T11, Y61A9LA.9 (Y61A9LA.9) (Caenorhabditis elegans) (UniProt Q9N312)
T11 sequence: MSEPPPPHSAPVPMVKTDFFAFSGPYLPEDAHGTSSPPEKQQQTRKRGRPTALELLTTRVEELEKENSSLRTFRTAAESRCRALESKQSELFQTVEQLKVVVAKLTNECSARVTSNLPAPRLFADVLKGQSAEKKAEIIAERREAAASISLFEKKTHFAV

Sequence of scrt-1 (C55C2.1) (Caenorhabditis elegans) (chain, as listed by the source): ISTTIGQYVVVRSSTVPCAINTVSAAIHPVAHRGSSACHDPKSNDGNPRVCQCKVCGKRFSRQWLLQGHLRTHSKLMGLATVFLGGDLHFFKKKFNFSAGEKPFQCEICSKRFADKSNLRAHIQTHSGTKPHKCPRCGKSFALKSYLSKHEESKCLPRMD
Sequence of egl-13 (T22B7.1) (Caenorhabditis elegans) (Q23045 279-447): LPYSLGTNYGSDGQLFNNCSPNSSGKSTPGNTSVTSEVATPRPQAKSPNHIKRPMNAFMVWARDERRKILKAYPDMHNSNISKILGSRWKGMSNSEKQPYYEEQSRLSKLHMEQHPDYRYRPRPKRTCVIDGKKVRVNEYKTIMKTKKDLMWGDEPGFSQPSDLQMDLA

## AAAAATTT (double strand) [8-mer AAAAATTT]
[1]
  binding signal (PBM E-score (-0.5 to 0.5)): 0.478
[2]
  binding signal (PBM E-score (-0.5 to 0.5)): 0.481

## ATGGCAAC (double strand) [8-mer ATGGCAAC]
[3]
  binding signal (PBM E-score (-0.5 to 0.5)): 0.468

## AATTTTTA (double strand) [8-mer AATTTTTA]
[1]
  binding signal (PBM E-score (-0.5 to 0.5)): 0.453

## AATGATCT (double strand) [8-mer AATGATCT]
[4]
  binding signal (PBM E-score (-0.5 to 0.5)): 0.45

## AACCACCT (double strand) [8-mer AACCACCT]
[5]
  binding signal (PBM E-score (-0.5 to 0.5)): 0.464

## AAAATTTT (double strand) [8-mer AAAATTTT]
[1]
  binding signal (PBM E-score (-0.5 to 0.5)): 0.469
[2]
  binding signal (PBM E-score (-0.5 to 0.5)): 0.481

## ATCGCCAC (double strand) [8-mer ATCGCCAC]
[6]
  binding signal (PBM E-score (-0.5 to 0.5)): 0.49

## ACAACAAT (double strand) [8-mer ACAACAAT]
[7]
  binding signal (PBM E-score (-0.5 to 0.5)): 0.455

## TTATATAA (double strand) [8-mer TTATATAA]
[8]
  binding signal (PBM E-score (-0.5 to 0.5)): 0.451

## AAAATTTC (double strand) [8-mer AAAATTTC]
[1]
  binding signal (PBM E-score (-0.5 to 0.5)): 0.47

## ATCACCAC (double strand) [8-mer ATCACCAC]
[6]
  binding signal (PBM E-score (-0.5 to 0.5)): 0.459

## AAAATGTT (double strand) [8-mer AAAATGTT]
[2]
  binding signal (PBM E-score (-0.5 to 0.5)): 0.475
[4]
  binding signal (PBM E-score (-0.5 to 0.5)): 0.458

## AAATTATT (double strand) [8-mer AAATTATT]
[1]
  binding signal (PBM E-score (-0.5 to 0.5)): 0.454

## GAACAATA (double strand) [8-mer GAACAATA]
[7]
  binding signal (PBM E-score (-0.5 to 0.5)): 0.478

## AACAATAA (double strand) [8-mer AACAATAA]
[7]
  binding signal (PBM E-score (-0.5 to 0.5)): 0.462

## CGTTGCTA (double strand) [8-mer CGTTGCTA]
[3]
  binding signal (PBM E-score (-0.5 to 0.5)): 0.489

## AACCACTT (double strand) [8-mer AACCACTT]
[5]
  binding signal (PBM E-score (-0.5 to 0.5)): 0.476

## AGTGGTTG (double strand) [8-mer AGTGGTTG]
[5]
  binding signal (PBM E-score (-0.5 to 0.5)): 0.492

## CACCTGTC (double strand) [8-mer CACCTGTC]
[9]
  binding signal (PBM E-score (-0.5 to 0.5)): 0.456

## ATAGCAAC (double strand) [8-mer ATAGCAAC]
[3]
  binding signal (PBM E-score (-0.5 to 0.5)): 0.489

## ATCTTCAC (double strand) [8-mer ATCTTCAC]
[6]
  binding signal (PBM E-score (-0.5 to 0.5)): 0.488

## CTGATAAG (double strand) [8-mer CTGATAAG]
[10]
  binding signal (PBM E-score (-0.5 to 0.5)): 0.472
[11]
  binding signal (PBM E-score (-0.5 to 0.5)): 0.496

## AGTACAAA (double strand) [8-mer AGTACAAA]
[12]
  binding signal (PBM E-score (-0.5 to 0.5)): 0.451
[4]
  binding signal (PBM E-score (-0.5 to 0.5)): 0.456

## ACTGATAA (double strand) [8-mer ACTGATAA]
[10]
  binding signal (PBM E-score (-0.5 to 0.5)): 0.476
[11]
  binding signal (PBM E-score (-0.5 to 0.5)): 0.496

## AATGTTCT (double strand) [8-mer AATGTTCT]
[4]
  binding signal (PBM E-score (-0.5 to 0.5)): 0.482

## ACACCTGT (double strand) [8-mer ACACCTGT]
[9]
  binding signal (PBM E-score (-0.5 to 0.5)): 0.468

## ATCTCCAG (double strand) [8-mer ATCTCCAG]
[6]
  binding signal (PBM E-score (-0.5 to 0.5)): 0.474

## AAATGTTC (double strand) [8-mer AAATGTTC]
[2]
  binding signal (PBM E-score (-0.5 to 0.5)): 0.469
[4]
  binding signal (PBM E-score (-0.5 to 0.5)): 0.487

## AAAATATT (double strand) [8-mer AAAATATT]
[1]
  binding signal (PBM E-score (-0.5 to 0.5)): 0.469
[2]
  binding signal (PBM E-score (-0.5 to 0.5)): 0.485
[13]
  binding signal (PBM E-score (-0.5 to 0.5)): 0.451
